The test concerns the target Aβ42 fibers (Homo sapiens (Human), UniProt P05067 672-713). Kind of test: pyrene excimer fluorescence (FIG. 11A legend).

pyrene = pyrene fluorescent label

Chain of Aβ42 fibers (P05067 672-713 limits assumed): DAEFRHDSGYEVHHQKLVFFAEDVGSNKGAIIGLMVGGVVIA

B1: Peptide probe specific for Aβ (SEQ ID NO:36) labeled at each terminus with pyrene (peptide)
peptide: pyrene-KLVFFAEDVGSNKGAIIGLM-pyrene
notes: also called Aβ peptide probe; dipyrene labeled peptide probe
Regarding B1, the binding result was “binds”.

These data come from patent US20130108549A1 (ADLYFE, published 2013).
